Test results from PMC3157743, “An Examination by Site-Directed Mutagenesis of Putative Key Residues in the Determination of Coenzyme Specificity in Clostridial NAD^+-Dependent Glutamate Dehydrogenase” (Enzyme Research, 2011).

B1: Clostridium symbiosum NAD^+-specific GDH (CsGDH) ([Clostridium] symbiosum) (protein)
chain: SKYVDRVIAEVEKKYADEPEFVQTVEEVLSSLGPVVDAHPEYEEVALLERMVIPERVIEFRVPWEDDNGKVHVNTGYRVQFNGAIGPYKGGLRFAPSVNLSIMKFLGFEQAFKDSLTTLPMGGAKGGSDFDPNGKSDREVMRFCQAFMTELYRHIGPDIDVPAGDLGVGAREIGYMYGQYRKIVGGFYNGVLTGKARSFGGSLVRPEATGYGSVYYVEAVMKHENDTLVGKTVALAGFGNVAWGAAKKLAELGAKAVTLSGPDGYIYDPEGITTEEKINYMLEMRASGRNKVQDYADKFGVQFFPGEKPWGQKVDIIMPCATQNDVDLEQAKKIVANNVKYYIEVANMPTTNEALRFLMQQPNMVVAPSKAVNAGGVLVSGFEMSQNSERLSWTAEEVDSKLHQVMTDIHDGSAAAAERYGLGYNLVAGANIVGFQKIADAMMAQGIAW
notes: full-length recombinant wild-type gdh in ptac85, expressed in E. coli, purified on Remazol Red Sepharose; no tag mentioned

Experiments:
Assay in all cases: initial rates, A340 decrease or fluorescence
Format in all cases: biochemical, [Clostridium] symbiosum
Conditions in all cases: 20 mM 2-oxoglutarate, 100 mM NH4Cl, 0.1 M potassium phosphate pH 7.0, 25 °C
[1] = system: T1, NC(=O)C1=CN([C@@H]2O[C@H](COP(=O)(O)OP(=O)(O)OC[C@H]3O[C@@H](n4cnc5c(N)ncnc54)[C@H](OP(=O)(O)O)[C@@H]3O)[C@@H](O)[C@H]2O)C=CC1
T1 construct: full-length recombinant wild-type gdh in ptac85, expressed in E. coli, purified on Remazol Red Sepharose; no tag mentioned
Excerpt: (§1) initial rates, A340 decrease or fluorescence on Clostridium symbiosum NAD^+-specific GDH (CsGDH)

[2] = system: T2, NC(=O)C1=CN([C@@H]2O[C@H](COP(=O)(O)OP(=O)(O)OC[C@H]3O[C@@H](n4cnc5c(N)ncnc54)[C@H](O)[C@@H]3O)[C@@H](O)[C@H]2O)C=CC1
T2 construct: full-length recombinant wild-type gdh in ptac85, expressed in E. coli, purified on Remazol Red Sepharose; no tag mentioned
Excerpt: as §1

[3] = substrate: NC(=O)C1=CN([C@@H]2O[C@H](COP(=O)(O)OP(=O)(O)OC[C@H]3O[C@@H](n4cnc5c(N)ncnc54)[C@H](O)[C@@H]3O)[C@@H](O)[C@H]2O)C=CC1
Excerpt: as §1

[4] = substrate: NC(=O)C1=CN([C@@H]2O[C@H](COP(=O)(O)OP(=O)(O)OC[C@H]3O[C@@H](n4cnc5c(N)ncnc54)[C@H](OP(=O)(O)O)[C@@H]3O)[C@@H](O)[C@H]2O)C=CC1
Excerpt: as §1

| Molecule | Km [1] | kcat [1] | kcat/Km [1] | Km [2] | kcat [2] | kcat/Km [2] | Km [3] | kcat [3] | kcat/Km [3] | Km [4] | kcat [4] | kcat/Km [4] |
| --- | --- | --- | --- | --- | --- | --- | --- | --- | --- | --- | --- | --- |
| Clostridium symbiosum NAD^+-specific GDH (CsGDH) ([Clostridium] symbiosum; A243G) | 386 ± 50 µM | 1.87 ± 0.01 s⁻¹ | 4840 M⁻¹ s⁻¹ | 25 ± 1 µM | 65.1 ± 1.6 s⁻¹ | 2.6e+06 M⁻¹ s⁻¹ | – | – | – | – | – | – |
| Clostridium symbiosum NAD^+-specific GDH (CsGDH) ([Clostridium] symbiosum; F239S) | 230 ± 50 µM | 11.1 ± 0.21 s⁻¹ | 48300 M⁻¹ s⁻¹ | 40 ± 3 µM | 139 ± 5 s⁻¹ | 3.48e+06 M⁻¹ s⁻¹ | – | – | – | – | – | – |
| Clostridium symbiosum NAD^+-specific GDH (CsGDH) ([Clostridium] symbiosum; F239S/P263S) | 330 ± 20 µM | 83.3 ± 3.5 s⁻¹ | 252000 M⁻¹ s⁻¹ | 35 ± 10 µM | 105 ± 4 s⁻¹ | 3e+06 M⁻¹ s⁻¹ | – | – | – | – | – | – |
| Clostridium symbiosum NAD^+-specific GDH (CsGDH) ([Clostridium] symbiosum; D264K) | 107 ± 20 µM | 26.3 ± 0.35 s⁻¹ | 246000 M⁻¹ s⁻¹ | 23 ± 2 µM | 80 ± 2.5 s⁻¹ | 3.48e+06 M⁻¹ s⁻¹ | – | – | – | – | – | – |
| Clostridium symbiosum NAD^+-specific GDH (CsGDH) ([Clostridium] symbiosum; P263S) | 110 ± 10 µM | 62.5 ± 1.6 s⁻¹ | 568000 M⁻¹ s⁻¹ | 47 ± 103 µM | 160 ± 8 s⁻¹ | 3.4e+06 M⁻¹ s⁻¹ | – | – | – | – | – | – |
| B1 | – | – | – | – | – | – | 20 ± 1 µM | 130.2 ± 3.1 s⁻¹ | 6.5e+06 M⁻¹ s⁻¹ | 90 ± 11 µM | 2.87 ± 0.11 s⁻¹ | 31900 M⁻¹ s⁻¹ |
